B1: T41L/N71S NfsB (enzyme, Escherichia coli)
chain: MDIISVALKRHSTKAFDASKKLTPEQAEQIKTLLQYSPSSLNSQPWHFIVASTEEGKARVAKSAAGNYVFSERKMLDASHVVVFCAKTAMDDVWLKLVVDQEDADGRFATPEAKAANDKGRKFFADMHRKDLHDDAEWMAKQVYLNVGNFLLGVAALGLDAVPIEGFDAAILDAEFGLKEKGYTSLVVVPVGHHSVEDFNATLPKSRLPQNITLTEV
notes: Escherichia coli NfsB nitroreductase, 24 kDa subunit, expressed as the native protein; Expressed 'as the native proteins', so no tag is stated; Homodimer with one FMN per active site; also called double mutant; T41L/N71S mutant; source: E. coli BL21 (λDE3), pET11c, purified (Phenyl Sepharose, Q-Sepharose)
B2: T41Q/N71S/F124T NfsB (enzyme, Escherichia coli)
chain: MDIISVALKRHSTKAFDASKKLTPEQAEQIKTLLQYSPSSQNSQPWHFIVASTEEGKARVAKSAAGNYVFSERKMLDASHVVVFCAKTAMDDVWLKLVVDQEDADGRFATPEAKAANDKGRKFTADMHRKDLHDDAEWMAKQVYLNVGNFLLGVAALGLDAVPIEGFDAAILDAEFGLKEKGYTSLVVVPVGHHSVEDFNATLPKSRLPQNITLTEV
notes: Escherichia coli NfsB nitroreductase, 24 kDa subunit, expressed as the native protein; Expressed 'as the native proteins', so no tag is stated; Homodimer with one FMN per active site; also called triple mutant; T41Q/N71S/F124T mutant; source: E. coli BL21 (λDE3), pET11c, purified (Phenyl Sepharose, Q-Sepharose)
B3: T41Q/N71S/F124T/M127V NfsB (enzyme, Escherichia coli)
chain: MDIISVALKRHSTKAFDASKKLTPEQAEQIKTLLQYSPSSQNSQPWHFIVASTEEGKARVAKSAAGNYVFSERKMLDASHVVVFCAKTAMDDVWLKLVVDQEDADGRFATPEAKAANDKGRKFTADVHRKDLHDDAEWMAKQVYLNVGNFLLGVAALGLDAVPIEGFDAAILDAEFGLKEKGYTSLVVVPVGHHSVEDFNATLPKSRLPQNITLTEV
notes: Escherichia coli NfsB nitroreductase, 24 kDa subunit; also called quadruple mutant; T41Q/N71S/F124T/M127V mutant; source: initially purified from a UT5600 E. coli lysogen, later also recloned into pET11c; purified (Phenyl Sepharose, Q-Sepharose)

Target: the molecule itself
Assay: crystal structure; crystals from 10–18% PEG 4000, 50–200 mM sodium acetate buffer pH 4.6, 15 mM nicotinic acid (where present), 15% ethylene glycol; molecular replacement with PDB 1ICR; two subunits in the asymmetric unit

Binding result, binds:
B1, B2, B3

Source: article PMC10051150, “Structure and Dynamics of Three Escherichia coli NfsB Nitro-Reductase Mutants Selected for Enhanced Activity with the Cancer Prodrug CB1954” (International Journal of Molecular Sciences, 2023)
